{"source": "paper PMC4423475", "about": "“Structure-based discovery of the first non-covalent inhibitors of Leishmania major tryparedoxin peroxidase by high throughput docking” (Scientific Reports, 2015)", "target": "Tryparedoxin peroxidase I from Leishmania major (LmTXNPx) (Leishmania major)", "assay": "crystal structure; hanging drop vapor diffusion at 293 K; 12 mg/mL protein in 20 mM Tris-HCl pH 7.5 with 50 mM DTT (reduced); pentamer in the asymmetric unit, decamer from two pentamers of adjacent asymmetric units"}
{"substance": "Tryparedoxin peroxidase I from Leishmania major (LmTXNPx) (enzyme)", "values": [{"measurement": "stoichiometry N", "result": 10}]}
